Measurements taken from patent publication US10273291.

Target: ΔRSC3
Assay: ELISA, antigen coated, IgG1

VRC-PG04 (antibody)
fold less binding than to RSC3: 100 fold

VRC-PG04b (antibody)
fold less binding than to RSC3: 100 fold
